± gives the standard deviation of the averaged measurements.
Experiment: total protein half-life in vivo (active degradation + dilution); higher = more stable protein
[1] = E. coli NCM3722 delta-clpP delta-lon delta-hslV, growth: N-lim chemostat, doubling time 6 h
[2] = E. coli NCM3722 delta-clpP, growth: N-lim chemostat, doubling time 6 h
[3] = E. coli NCM3722 delta-hslV, growth: N-lim chemostat, doubling time 6 h
[4] = E. coli NCM3722 delta-lon, growth: N-lim chemostat, doubling time 6 h
[5] = E. coli NCM3722 delta-smpB, growth: N-lim chemostat, doubling time 6 h
[6] = wild type E. coli NCM3722, growth: C-lim chemostat, doubling time 3 h
[7] = wild type E. coli NCM3722, growth: C-lim chemostat, doubling time 6 h
[8] = wild type E. coli NCM3722, growth: C-lim chemostat, doubling time 12 h
[9] = wild type E. coli NCM3722, growth: N-lim chemostat, doubling time 6 h
[10] = wild type E. coli NCM3722, growth: N-lim chemostat, doubling time 12 h
[11] = wild type E. coli NCM3722, growth: P-lim chemostat, doubling time 6 h
[12] = wild type E. coli NCM3722, growth: P-lim chemostat, doubling time 12 h

MNIFDHYRQRYEAAKDEEFTLQEFLTTCRQDRSAYANAAERLLMAIGEPVMVDTAQEPRLSRLFSNRVIARYPAFEEFYGMEDAIEQIVSYLKHAAQGLEEKKQILYLLGPVGGGKSSLAERLKSLMQLVPIYVLSANGERSPVNDHPFCLFNPQEDAQILEKEYGIPRRYLGTIMSPWAAKRLHEFGGDITKFRVVKVWPSILQQIAIAKTEPGDENNQDISALVGKVDIRKLEHYAQNDPDAYGYSGALCRANQGIMEFVEMFKAPIKVLHPLLTATQEGNYNGTEGISALPFNGIILAHSNESEWVTFRNNKNNEAFLDRVYIVKVPYCLRISEEIKIYEKLLNHSELTHAPCAPGTLETLSRFSILSRLKEPENSSIYSKMRVYDGESLKDTDPKAKSYQEYRDYAGVDEGMNGLSTRFAFKILSRVFNFDHVEVAANPVHLFYVLEQQIEREQFPQEQAERYLEFLKGYLIPKYAEFIGKEIQTAYLESYSEYGQNIFDRYVTYADFWIQDQEYRDPDTGQLFDRESLNAELEKIEKPAGISNPKDFRNEIVNFVLRARANNSGRNPNWTSYEKLRTVIEKKMFSNTEELLPVISFNAKTSTDEQKKHDDFVDRMMEKGYTRKQVRLLCEWYLRVRKSS [P0ACY3]
total protein half-life in vivo [1]: 3.5 ± 0.94 h
total protein half-life in vivo [2]: 2.691 ± 0.0021 h
total protein half-life in vivo [3]: 2.49 ± 0.037 h
total protein half-life in vivo [4]: 2.38 ± 0.24 h
total protein half-life in vivo [5]: 2.24 ± 0.06 h
total protein half-life in vivo [6]: 2.76 ± 0.21 h
total protein half-life in vivo [7]: 3.41 ± 0.25 h
total protein half-life in vivo [8]: 4.77 ± 0.46 h
total protein half-life in vivo [9]: 2.48 ± 0.11 h
total protein half-life in vivo [10]: 3.09 ± 0.1 h
total protein half-life in vivo [11]: 4.703 ± 0.016 h
total protein half-life in vivo [12]: 7.66 ± 0.77 h

MEMLSGAEMVVRSLIDQGVKQVFGYPGGAVLDIYDALHTVGGIDHVLVRHEQAAVHMADGLARATGEVGVVLVTSGPGATNAITGIATAYMDSIPLVVLSGQVATSLIGYDAFQECDMVGISRPVVKHSFLVKQTEDIPQVLKKAFWLAASGRPGPVVVDLPKDILNPANKLPYVWPESVSMRSYNPTTTGHKGQIKRALQTLVAAKKPVVYVGGGAITAGCHQQLKETVEALNLPVVCSLMGLGAFPATHRQALGMLGMHGTYEANMTMHNADVIFAVGVRFDDRTTNNLAKYCPNATVLHIDIDPTSISKTVTADIPIVGDARQVLEQMLELLSQESAHQPLDEIRDWWQQIEQWRARQCLKYDTHSEKIKPQAVIETLWRLTKGDAYVTSDVGQHQMFAALYYPFDKPRRWINSGGLGTMGFGLPAALGVKMALPEETVVCVTGDGSIQMNIQELSTALQYELPVLVVNLNNRYLGMVKQWQDMIYSGRHSQSYMQSLPDFVRLAEAYGHVGIQISHPHELESKLSEALEQVRNNRLVFVDVTVDGSEHVYPMQIRGGGMDEMWLSKTERT
total protein half-life in vivo [1]: 5.76 ± 1.1 h
total protein half-life in vivo [2]: 5.31 ± 0.18 h
total protein half-life in vivo [3]: 5.06 ± 0.41 h
total protein half-life in vivo [4]: 5.03 ± 0.088 h
total protein half-life in vivo [5]: 5.13 ± 0.46 h
total protein half-life in vivo [6]: 3.03 ± 0.14 h
total protein half-life in vivo [7]: 6.41 ± 0.94 h
total protein half-life in vivo [8]: 11.1 ± 0.39 h
total protein half-life in vivo [9]: 4.78 ± 0.1 h
total protein half-life in vivo [10]: 8.81 ± 0.62 h
total protein half-life in vivo [11]: 6.092 ± 0.014 h
total protein half-life in vivo [12]: 12 ± 0.24 h

MDFFSVQNILVHIPIGAGGYDLSWIEAVGTIAGLLCIGLASLEKISNYFFGLINVTLFGIIFFQIQLYASLLLQVFFFAANIYGWYAWSRQTSQNEAELKIRWLPLPKALSWLAVCVVSIGLMTVFINPVFAFLTRVAVMIMQALGLQVVMPELQPDAFPFWDSCMMVLSIVAMILMTRKYVENWLLWVIINVISVVIFALQGVYAMSLEYIILTFIALNGSRMWINSARERGSRALSH [P0AFK2]
total protein half-life in vivo [1]: 6.22 h
total protein half-life in vivo [2]: 6.15 ± 0.15 h
total protein half-life in vivo [3]: 6.54 h
total protein half-life in vivo [4]: 5.58 ± 0.22 h
total protein half-life in vivo [5]: 5.5 ± 0.096 h
total protein half-life in vivo [6]: 3.29 ± 0.33 h
total protein half-life in vivo [7]: 6.14 ± 0.31 h
total protein half-life in vivo [8]: 11.8 ± 2.2 h
total protein half-life in vivo [9]: 6.05 h
total protein half-life in vivo [10]: 11.5 ± 3 h
total protein half-life in vivo [11]: 6.07 ± 0.39 h

MTDLHTDVERYLRYLSVERQLSPITLLNYQRQLEAIINFASENGLQSWQQCDVTMVRNFAVRSRRKGLGAASLALRLSALRSFFDWLVSQNELKANPAKGVSAPKAPRHLPKNIDVDDMNRLLDIDINDPLAVRDRAMLEVMYGAGLRLSELVGLDIKHLDLESGEVWVMGKGSKERRLPIGRNAVAWIEHWLDLRDLFGSEDDALFLSKLGKRISARNVQKRFAEWGIKQGLNNHVHPHKLRHSFATHMLESSGDLRGVQELLGHANLSTTQIYTHLDFQHLASVYDAAHPRAKRGK [P0A8P6]
total protein half-life in vivo [1]: 4.56 ± 0.07 h
total protein half-life in vivo [2]: 2.2684 ± 0.0015 h
total protein half-life in vivo [3]: 1.38 h
total protein half-life in vivo [4]: 2.36 ± 0.25 h
total protein half-life in vivo [5]: 1.64 ± 0.28 h
total protein half-life in vivo [6]: 1.59 ± 0.34 h
total protein half-life in vivo [7]: 2.67 h
total protein half-life in vivo [9]: 1.81 h
total protein half-life in vivo [10]: 2.08 ± 0.12 h
total protein half-life in vivo [11]: 1.87 ± 0.3 h
total protein half-life in vivo [12]: 3.1 ± 0.58 h

MAYKHILIAVDLSPESKVLVEKAVSMARPYNAKVSLIHVDVNYSDLYTGLIDVNLGDMQKRISEETHHALTELSTNAGYPITETLSGSGDLGQVLVDAIKKYDMDLVVCGHHQDFWSKLMSSARQLINTVHVDMLIVPLRDEEE [P0AED0]
total protein half-life in vivo [1]: 3.96 h
total protein half-life in vivo [2]: 4.94 ± 0.073 h
total protein half-life in vivo [3]: 4.31 ± 0.27 h
total protein half-life in vivo [4]: 4.3 ± 0.64 h
total protein half-life in vivo [5]: 4.52 ± 0.15 h
total protein half-life in vivo [6]: 3.34 ± 0.46 h
total protein half-life in vivo [7]: 5.16 ± 0.1 h
total protein half-life in vivo [8]: 10.7 ± 1.6 h
total protein half-life in vivo [9]: 4.305 ± 0.0018 h
total protein half-life in vivo [11]: 5.92 ± 0.084 h
total protein half-life in vivo [12]: 9.86 ± 1.9 h

MKRPALILICLLLQACSATTKELGNSLWDSLFGTPGVQLTDDDIQNMPYASQYMQLNGGPQLFVVLAFAEDGQQKWVTQDQATLVTQHGRLVKTLLGGDNLIEVNNLAADPLIKPAQIVDGASWTRTMGWTEYQQVRYATARSVFKWDGTDTVKVGSDETPVRVLDEEVSTDQARWHNRYWIDSEGQIRQSEQYLGADYFPVKTTLIKAAKQ
total protein half-life in vivo [1]: 6.57 ± 0.37 h
total protein half-life in vivo [2]: 6.43 h
total protein half-life in vivo [4]: 6.59 ± 0.19 h
total protein half-life in vivo [5]: 5.12 ± 0.2 h

MGFTTRVKSEASEKKPFNFALFWDKYGTFFILAIIVAIFGSLSPEYFLTTNNITQIFVQSSVTVLIGMGEFFAILVAGIDLSVGAILALSGMVTAKLMLAGVDPFLAAMIGGVLVGGALGAINGCLVNWTGLHPFIITLGTNAIFRGITLVISDANSVYGFSFDFVNFFAASVIGIPVPVIFSLIVALILWFLTTRMRLGRNIYALGGNKNSAFYSGIDVKFHILVVFIISGVCAGLAGVVSTARLGAAEPLAGMGFETYAIASAIIGGTSFFGGKGRIFSVVIGGLIIGTINNGLNILQVQTYYQLVVMGGLIIAAVALDRLISK
total protein half-life in vivo [3]: 5.22 h
total protein half-life in vivo [7]: 5.91 h
